Biological target: IL-1 receptor (human) (UniProt P14778)
Assay: cell-based or functional assay

Sequence of UniProt P14778 (P14778 18-569): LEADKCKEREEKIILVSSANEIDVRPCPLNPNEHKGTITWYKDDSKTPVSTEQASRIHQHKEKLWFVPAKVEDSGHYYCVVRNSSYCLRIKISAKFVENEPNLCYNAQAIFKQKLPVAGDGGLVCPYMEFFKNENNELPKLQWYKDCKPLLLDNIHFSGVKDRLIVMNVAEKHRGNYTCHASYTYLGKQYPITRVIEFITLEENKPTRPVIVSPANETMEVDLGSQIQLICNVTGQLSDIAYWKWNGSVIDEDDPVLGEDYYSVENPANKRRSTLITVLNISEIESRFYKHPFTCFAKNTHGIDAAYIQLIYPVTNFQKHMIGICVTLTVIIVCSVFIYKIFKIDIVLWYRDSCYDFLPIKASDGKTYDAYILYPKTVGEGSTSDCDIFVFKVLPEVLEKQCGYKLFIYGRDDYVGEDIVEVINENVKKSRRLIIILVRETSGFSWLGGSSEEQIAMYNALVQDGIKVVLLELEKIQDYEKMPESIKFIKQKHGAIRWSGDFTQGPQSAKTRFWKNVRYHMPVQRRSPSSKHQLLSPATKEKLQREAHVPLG

Substance: Kineret® (anakinra) (from UniProt P18510 26-177) (ligand)
- IC50, inhibition of IL-1β induced production of IL-8 in human whole blood (100 pM rhIL-1β): 53.4 pM

Source: patent publication US20080292640A1
